# US20180016581
# Like-named read-outs stand apart in the source and are kept apart here.
# Columns and labels:
# [1] = biological target: T1, GDF11, mature (Homo sapiens) (UniProt O95390); conditions: TrpdU at each W (n in listing)
# T1 sequence: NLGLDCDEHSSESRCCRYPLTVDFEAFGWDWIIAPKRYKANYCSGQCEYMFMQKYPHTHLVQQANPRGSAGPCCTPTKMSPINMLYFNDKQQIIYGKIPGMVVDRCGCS
# [2] = biological target: GDF8 (myostatin), mature (Homo sapiens) (UniProt O14793); conditions: TrpdU at each W (n in listing)
# GDF8 (myostatin), mature (Homo sapiens), sequence (O14793 267-375): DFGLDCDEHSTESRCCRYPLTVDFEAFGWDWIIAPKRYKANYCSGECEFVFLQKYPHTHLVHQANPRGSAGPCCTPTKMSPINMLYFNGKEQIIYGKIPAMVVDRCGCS
Sequence,"Kd ([1]; 0.1 uM Z-block, low binding plateau) [nM]","Kd ([2]; 0.1 uM Z-block, 1.32E-10 M in p223) [nM]",Kd ([2]; with Z-block) [nM],Kd ([1]; with Z-block) [nM]
CTCTGATACGGCCTTAGTGTTAGAGTCCTTTATGAGTCTAGACCACAACA [14583-49_3],1.11,0.13,,
TGTTAGAGTCCTTTATGAGTCTAG [14583-49_29],,,0.228,
CTCTGAACTTCTAATGTCTCTTGCATTTTATCGCATTGATTTCTCCAACA [14583-19_3],,,1.16,0.42
